From the RNAGym collection of RNA variant scans (doi:10.1073/pnas.2313332121)

B1: TPR t1 (parent)
chain: GACCAAUCUGCCCUCAGAGCUCGAGAACAUCUUCGGAUGCAGAGGAGGCAGGCUUCGGUGGCGCGAUAGCGCCAACGUCCUCAACCUCCAAUGCAUCCCACCACAUGAUGAUGCCUGAAGAGCCUUGGUUUUUUG

Variants of: B1
Test: polymerase ribozyme fitness, log enrichment relative to wild type (log ratio); higher = more active; in vitro selection for triplet polymerase activity
How it was run: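 PCR was used to build mutant libraries for each subunit of a heterodimeric triplet polymerase ribozyme, which were then transcribed. A single in vitro selection round, in triplicate, used a frozen incubation at −7 °C and recovered extended constructs by gel excision, streptavidin beads and RT-PCR. Fitness is the logarithm of genotype enrichment relative to wild-type enrichment, averaged over replicates with inverse-variance weights. The logarithm is base 2, and after Illumina sequencing only genotypes with ≥10 input reads and ≥1 read per output were kept.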

Going from C34G C73U C104G U116C A121C G122U to C34A U78C C88U, the “polymerase ribozyme fitness (log ratio)” value rises from -6.01 to -1.84.

Going from U33C C124A to G35A C88U A121U, the “polymerase ribozyme fitness (log ratio)” value rises from -2.98 to -1.91.

First: C34G G117C C124A
Second: C34A G63C A100C C104A
The “polymerase ribozyme fitness (log ratio)” value of the first is lower: -6.44 for the first, -6.04 for the second.

Going from G35C C76G C99G A100C U112A G120A to G35A G48U, the “polymerase ribozyme fitness (log ratio)” value rises from -6.53 to -3.78.

Compared with C34G C124A, C34G C124U is lower in “polymerase ribozyme fitness (log ratio)” value: -3.61 for the first, -4.28 for the second.

First: G35A C72G A105C U109G U116G A121G
Second: C34A G60C A100G
The “polymerase ribozyme fitness (log ratio)” value of the first is lower: -6.34 for the first, -5.76 for the second.

Compared with U33G C72A C85G A90G G120C U129G, C34A U109C is higher in “polymerase ribozyme fitness (log ratio)” value: -7.02 for the first, -6.24 for the second.

First: C34A C56A G93A C97U
Second: U33G G52C U78A C98A U112G U116G
The “polymerase ribozyme fitness (log ratio)” value of the first is higher: -4.7 for the first, -7.02 for the second.

Compared with C34U C79U U130C, C34A A43U is lower in “polymerase ribozyme fitness (log ratio)” value: -5.4 for the first, -5.98 for the second.

First: C34U A50U C73U C115A A119G
Second: C34A G127C
The “polymerase ribozyme fitness (log ratio)” value of the first is lower: -4.5 for the first, -3.8 for the second.

Compared with U33C U132A, C34A C102U is higher in “polymerase ribozyme fitness (log ratio)” value: -4.81 for the first, -1.64 for the second.

Going from C34A C56G G117A to G35C A95U C99U C104A A111C, the “polymerase ribozyme fitness (log ratio)” value falls from -5.64 to -6.57.

First: U33G C104U
Second: C34U C102U C124A
The “polymerase ribozyme fitness (log ratio)” value of the first is lower: -5.5 for the first, -0.815 for the second.

Going from U33G U59G G110A to C34A A100G, the “polymerase ribozyme fitness (log ratio)” value rises from -5.54 to -5.07.

Going from G35A G51A G60U C124U to C34U G47A C72U U78A C115A, the “polymerase ribozyme fitness (log ratio)” value rises from -6.94 to -6.19.

G35A G71A and C34A G39U C73G C98A are within 0.2 log units of each other in “polymerase ribozyme fitness (log ratio)” value: -4.49 for the first, -4.33 for the second.

Going from C34G G107A to U33G C76G C88A C115U, the “polymerase ribozyme fitness (log ratio)” value rises from -7.98 to -6.6.

First: C34U G122A
Second: U33C G39U
The “polymerase ribozyme fitness (log ratio)” value of the first is higher: -4.6 for the first, -5.33 for the second.

Compared with C34A C98U G122U, G35A C102U is lower in “polymerase ribozyme fitness (log ratio)” value: -2.46 for the first, -5.08 for the second.

Compared with C34A C40A C49G G77A U112A C115G, C34A C49G C76G U96A C124U U131G U134C is higher in “polymerase ribozyme fitness (log ratio)” value: -7.22 for the first, -2.1 for the second.

G35C C72U C114U and C34G U38A G48A C53U A111U are within 0.2 log units of each other in “polymerase ribozyme fitness (log ratio)” value: -6.13 for the first, -6 for the second.

First: G35A G44U C115A C124G
Second: C34U A84G C89G
The “polymerase ribozyme fitness (log ratio)” value of the first is higher: -2.88 for the first, -6.47 for the second.

First: C34A G69C A111G
Second: C34U C88U
The “polymerase ribozyme fitness (log ratio)” value of the first is lower: -5.23 for the first, -4.26 for the second.

Compared with C34A G52U C53U A90U U106A, C34A C123U is higher in “polymerase ribozyme fitness (log ratio)” value: -4.54 for the first, -1.54 for the second.

Going from C34A C123G to C34G C73A U116A A121U, the “polymerase ribozyme fitness (log ratio)” value falls from -0.401 to -4.42.

Compared with C34A G71C U129C, C34U C72U A105G G120A is lower in “polymerase ribozyme fitness (log ratio)” value: -5.07 for the first, -6.01 for the second.

First: C34U C115U
Second: C34U G110A
The “polymerase ribozyme fitness (log ratio)” value of the first is lower: -5.45 for the first, -4.68 for the second.

C34G U54G G69U and C34A C72U U116G are within 0.2 log units of each other in “polymerase ribozyme fitness (log ratio)” value: -5.25 for the first, -5.21 for the second.

Compared with U33G G61A C80G A91C U92A C101U C115G, U33G G52C C56A G61A C79U A91G C123G U131G is higher in “polymerase ribozyme fitness (log ratio)” value: -8.32 for the first, -7.1 for the second.

Compared with C34G G44A, C34A G117U is higher in “polymerase ribozyme fitness (log ratio)” value: -6.88 for the first, -6.2 for the second.

First: C34G U67C A103G G107C U116C C123G
Second: C34A G65U C82G A111G U116G
The “polymerase ribozyme fitness (log ratio)” value of the first is lower: -7.28 for the first, -6.99 for the second.

Compared with C34A A46U A75G C102U A111G, C34A G71U is higher in “polymerase ribozyme fitness (log ratio)” value: -3.22 for the first, -2.95 for the second.

First: U33G C64U U112G
Second: C34G C82U
The “polymerase ribozyme fitness (log ratio)” value of the first is lower: -6.48 for the first, -6.19 for the second.

Going from C34G C49U C97U C114G to C34A U112A, the “polymerase ribozyme fitness (log ratio)” value rises from -7.24 to -1.81.

First: C34U G63C
Second: U33G G35U G69U U78G A91C C114G G128C U132A G135A
The “polymerase ribozyme fitness (log ratio)” value of the first is higher: -3.94 for the first, -5.79 for the second.

First: C34A C56A C104U
Second: G35A G48A G71A C89A C99A C101U
The “polymerase ribozyme fitness (log ratio)” value of the first is higher: -2.11 for the first, -7.55 for the second.

First: C34U C62U
Second: C34A A68G A100C C123U
The “polymerase ribozyme fitness (log ratio)” value of the first is higher: -5.32 for the first, -5.6 for the second.

Going from C34U U112A G122A to U33C G60A, the “polymerase ribozyme fitness (log ratio)” value rises from -5.94 to -4.87.

First: U33C G69U
Second: C34A C89U
The “polymerase ribozyme fitness (log ratio)” value of the first is higher: -1.74 for the first, -4.08 for the second.

Going from C34A C89A to C34U C123U, the “polymerase ribozyme fitness (log ratio)” value rises from -5.68 to -2.86.

Compared with C34A G35A C86G U112C, C34G G47U U55G G61C G63C C80U is lower in “polymerase ribozyme fitness (log ratio)” value: -4.41 for the first, -7.69 for the second.

First: G35A C114G
Second: C34A C114G
The “polymerase ribozyme fitness (log ratio)” value of the first is lower: -5.64 for the first, -5.41 for the second.
